# According to US8772451:
# Legend:
# [1] = target: HLA-A2.1 presenting p53 (aa264-273) peptide, on T2 cells (human); assay: flow cytometry on peptide-loaded T2 cells, fusion protein at 125 pM, H57-PE detection
# [2] = target: HLA-A2.1 presenting human p53 (aa 149-157) control peptide, on T2 cells (human); assay: as above
# [3] = target: HLA-A2.1 presenting p53 (aa264-273) peptide, on T2 cells (human); assay: quantitative flow cytometry on peptide-loaded T2 cells, PE anti-human IgG detection
# [4] = target: cognate MHC/peptide of the 264scTCR (HLA-A2.1/p53 aa 264-272), form in SPR not stated (human); assay: surface plasmon resonance, physiological conditions
mean channel fluorescence (MCF) [1],mean channel fluorescence (MCF) [2],fold increase in staining against 264scTCR/BirA tetramers [3],Kd [4],Substance
863 MCF,119 MCF,4 to 10 fold,–,264scTCR/IgG1 fusion protein (from UniProt P01857 1-330)
95.1 MCF,13.4 MCF,–,–,"264scTCR/BirA (monomeric, without biotinylation)"
–,–,–,0.1 µM,264scTCR
55.3 MCF,10.9 MCF,–,–,264scTCR/trunIgG1 (from UniProt P01857 1-98)
